Patent publication US7993648

Molecular target: CD70 (UniProt O55237)
Assay: cell-based or functional assay

Sequence of UniProt O55237 (O55237 whole entry): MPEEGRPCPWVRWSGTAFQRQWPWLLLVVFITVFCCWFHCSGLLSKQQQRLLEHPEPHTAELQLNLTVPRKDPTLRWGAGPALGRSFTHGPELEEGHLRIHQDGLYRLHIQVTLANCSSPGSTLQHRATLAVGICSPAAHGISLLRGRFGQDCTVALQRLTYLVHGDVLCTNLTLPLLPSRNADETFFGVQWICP

anti-CD70 blocking antibody FR70
CD8+ T cell response (tetramer staining of day 7 PBLs) in CD4-depleted IFNαβR KO mice: 10 fold
